This is an account of results in patent publication US5906819, “Rho target protein Rho-kinase” (Kirin Beer Kabushiki Kaisha, dated 1999).

For one test, the target named is GST (Schistosoma japonicum (Blood fluke), UniProt P08515 = GST). Kind of test: GST-small G-protein glutathione-Sepharose affinity column, SDS-PAGE and silver staining.
The next test has as its target GTPγS·GST-Rac1 (Homo sapiens (Human), UniProt P63000). Kind of test: GST-small G-protein glutathione-Sepharose affinity column.
The target of another test is GTPγS·GST-H-Ras (Homo sapiens (Human), UniProt P01112). Described as above.

B1: bovine Rho-kinase (enzyme)
chain: MSRPPPTGKMPGAPEAVSGDGAGASRQRKLEALIRDPRSPINVESLLDGLNPLVLDLDFPALRKNKNIDNFLNRYEKIVKKIRGLQMKAEDYDVVKVIGRGAFGEVQLVRHKASQKVYAMKLLSKFEMIKRSDSAFFWEERDIMAFANSPWVVQLFCAFQDDKYLYMVMEYMPGGDLVNLMSNYDVPEKWAKFYTAEVVLALDAIHSMGLIHRDVKPDNMLLDKHGHLKLADFGTCMKMDETGMVHCDTAVGTPDYISPEVLKSQGGDGYYGRECDWWSVGVFLFEMLVGDTPFYADSLVGTYSKIMDHKNSLCFPEDAEISKHAKNLICAFLTDREVRLGRNGVEEIKQHPFFKNDQWNWDNIRETAAPVVPELSSDIDSSNFDDIEDDKGDVETFPIPKAFVGNQLPFIGFTYYRENLLLSDSPSCKENDSIQSRKNEESQEIQKKLYTLEEHLSTEIQAKEELEQKCKSVNTRLEKVAKELEEEITLRKNVESTLRQLEREKALLQHKNAEYQRKADHEADKKRNLENDVNSLKDQLEDLKKRNQNSQISTEKVNQLQRQLDETNALLRTESDTAARLRKTQAESSKQIQQLESNNRDLQDKNCLLETAKLKLEKEFINLQSVLESERRDRTHGSEIINDLQGRISGLEEDVKNGKILLAKVELEKRQLQERFTDLEKEKNNMEIDMTYQLKVIQQSLEQEETEHKATKARLADKNKIYESIEEAKSEAMKEMEKKLSEERTLKQKVENLLLEAEKRCSILDCDLKQSQQKINELLKQKDVLNEDVRNLTLKIEQETQKRCLTQNDLKMQTQQVNTLKMSEKQLKQENNHLLEMKMSLEKQNAELRKERQDADGQMKELQDQLEAEQYFSTLYKTQVRELKEECEEKTKLCKELQQKKQELQDERDSLAAQLEITLTKADSEQLARSIAEEQYSDLEKEKIMKELEIKEMMARHKQELTEKDATIASLEETNRTLTSDVANLANEKEELNNKLKEAQEQLSRLKDEEISAAAIKAQFEKQLLTERTLKTQAVNKLAEIMNRKEPVKRGNDTDVRRKEKENRKLHMELKSEREKLTQQMIKYQKELNEMQAQIAEESQIRIELQMTLDSKDSDIEQLRSQLQALHIGLDSSSIGSGPGDTEADDGFPESRLEGWLSLPVRNNTKKFGWVKKYVIVSSKKILFYDSEQDKEQSNPYMVLDIDKLFHVRPVTQTDVYRADAKEIPRIFQILYANEGESKKEQEFPVEPVGEKSNYICHKGHEFIPTLYHFPTNCEACMKPLWHMFKPPPALECRRCHIKCHKDHMDKKEEIIAPCKVYYDISSAKNLLLLANSTEEQQKWVSRLVKKIPKKPPAPDPFARSSPRTSMKIQQNQSIRRPSRQLAPNKPS
B1: the binding result with GST was “no binding (tested: 24 nmol on the column)”; with GTPγS·GST-Rac1, “no binding”; in the test with GTPγS·GST-H-Ras, “no binding”.
